T1: human Siglec-5 expressed on human primary cells (human, UniProt O15389 17-551)
T1 construct: Endogenous receptor on human primary monocytes, dendritic cells, macrophages and neutrophils; also called CD170
T1 sequence: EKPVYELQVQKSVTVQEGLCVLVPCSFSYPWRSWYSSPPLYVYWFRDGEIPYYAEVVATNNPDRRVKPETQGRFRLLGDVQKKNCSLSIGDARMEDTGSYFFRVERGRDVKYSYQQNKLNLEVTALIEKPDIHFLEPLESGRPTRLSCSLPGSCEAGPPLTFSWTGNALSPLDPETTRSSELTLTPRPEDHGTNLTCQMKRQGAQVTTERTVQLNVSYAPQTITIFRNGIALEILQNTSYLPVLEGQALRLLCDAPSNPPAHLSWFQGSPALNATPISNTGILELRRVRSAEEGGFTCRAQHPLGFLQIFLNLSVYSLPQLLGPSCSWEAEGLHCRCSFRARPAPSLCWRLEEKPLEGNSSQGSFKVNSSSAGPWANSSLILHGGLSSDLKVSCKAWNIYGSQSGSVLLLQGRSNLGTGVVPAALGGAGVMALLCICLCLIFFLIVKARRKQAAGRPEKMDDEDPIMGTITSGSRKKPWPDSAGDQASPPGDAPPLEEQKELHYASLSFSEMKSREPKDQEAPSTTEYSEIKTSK

T2: Histidine-tagged human Siglec-5 (NovoProtein) (human, UniProt O15389 17-434, limits assumed)
T2 construct: Bought protein; also called Siglec-5-his tagged protein; not shown: histidine tag
T2 sequence: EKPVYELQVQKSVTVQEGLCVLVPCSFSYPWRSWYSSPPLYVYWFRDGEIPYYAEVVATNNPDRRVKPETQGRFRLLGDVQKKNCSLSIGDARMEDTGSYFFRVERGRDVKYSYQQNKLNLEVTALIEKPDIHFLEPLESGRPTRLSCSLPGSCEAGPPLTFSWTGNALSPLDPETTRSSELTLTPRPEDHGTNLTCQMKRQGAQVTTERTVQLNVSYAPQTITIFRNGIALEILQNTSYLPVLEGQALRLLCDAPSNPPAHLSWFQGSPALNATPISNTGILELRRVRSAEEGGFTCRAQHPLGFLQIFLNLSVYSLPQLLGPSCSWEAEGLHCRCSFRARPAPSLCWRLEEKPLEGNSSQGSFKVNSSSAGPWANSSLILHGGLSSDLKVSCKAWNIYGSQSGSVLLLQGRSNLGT

T3: Human Siglec 5, Fc chimera (R&D Systems) (human, UniProt O15389 17-434, limits assumed)
T3 construct: Bought or recombinant Fc fusion; also called recombinant Siglec-5-Fc; not shown: Fc part
T3 sequence: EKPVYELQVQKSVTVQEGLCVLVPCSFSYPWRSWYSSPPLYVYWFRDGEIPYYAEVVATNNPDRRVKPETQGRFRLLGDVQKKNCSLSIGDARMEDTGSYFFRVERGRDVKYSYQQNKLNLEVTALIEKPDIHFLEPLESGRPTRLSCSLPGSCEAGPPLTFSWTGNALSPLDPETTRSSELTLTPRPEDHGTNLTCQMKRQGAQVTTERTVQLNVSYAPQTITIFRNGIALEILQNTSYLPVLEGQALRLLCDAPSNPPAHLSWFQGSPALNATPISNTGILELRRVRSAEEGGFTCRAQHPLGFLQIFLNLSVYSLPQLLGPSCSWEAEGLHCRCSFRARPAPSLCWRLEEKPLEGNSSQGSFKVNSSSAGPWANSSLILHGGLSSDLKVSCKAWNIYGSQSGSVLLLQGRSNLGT


Assays:
[1] = molecular target: T1, human Siglec-5 expressed on human …; experiment: flow cytometry, human primary dendritic cells, 10 ug/ml mAb
Method: (§1) Initial characterization of Siglec-5 antibodies involved determining their ability to bind Siglec-5 expressed on human primary monocytes, human primary macrophages, human primary dendritic cells, and human primary neutrophils. Cells were harvested, plated at 10⁶1m1 in a 96 well plate, and incubated in 100 μl PBS containing 2% FBS, 2 mM EDTA and 10 μg/ml Mab and Fc blocking reagent for 1 hour in ice. […] Cells were washed twice in cold PBS and analyze by flow cytometry on a BD FACS Canto. Data analysis and calculation of MFI values was performed with FlowJo (TreeStar) software version 10.0.7.
(§2) Binding is compared to an isotype control.

[2] = molecular target: T1, human Siglec-5 expressed on human …; experiment: flow cytometry, human primary neutrophils, 10 ug/ml mAb
Method: as §1, §2

[3] = molecular target: T2, Histidine-tagged human Siglec-5 …; experiment: SPR (BiaCore T200, 25 C), mAb captured on anti-mouse IgG, 15 nM His-tagged Siglec-5, single-concentration 1:1 fit
Method: The binding affinity of each anti-Siglec-5 antibody was determined by measuring their KD by surface plasmon resonance (SPR) assays. SPR data was collected at a rate of 10 Hz at 25° C. on a BiaCore T200 instrument. Data analysis was performed using BiaCore T200 Evaluation
Histidine-tagged human Siglec-5 (NovoProtein) was then flowed over the captured anti-Siglec-5 surface (120 s contact time, 30 4/min flow rate, 300 s dissociation time). […] Duplicate single-concentration trials were performed and bracketed by a blank (0 nM antigen) sample. The chip surface was regenerated in between cycles using 10 mM glycine-HCl, pH 1.7 (60 s contact time, 30 4/min flow rate, 60 s stabilization time). The resulting SPR signal was obtained as the difference in response from measurements performed on a blank flow cell.
Affinity constants (KD) were calculated from the ratio kd/kₐ.

[4] = molecular target: T1, human Siglec-5 expressed on human …; experiment: flow cytometry, human primary monocytes, 10 ug/ml mAb
Method: as §1, §2

[5] = molecular target: T3, Human Siglec 5, Fc chimera (R&D Systems); experiment: RBC adhesion to plate-bound Siglec-5-Fc, 0.3 ug/ml mAb, percent of binding without antibody
Method: (§3) Siglec-5 antibodies (0.3 μg/ml or 1.0 μg/ml) were bound for one hour at RT with gentle rocking. After removal of unbound antibody, red blood cells were added to each well at a concentration of 3.0 ×10⁶ cells per ml and incubated at RT for one hour. Unbound RBCs were then carefully washed off 3X with PBS, and water was added to each well for hypotonic lysis of bound RBCs. The plate was transferred to -80° C. for 10 minutes, followed by 37° C. for 15 minutes. Bound RBCs were detected by peroxidase activity, followed by 2N sulfuric acid to stop the reaction.

[6] = molecular target: T1, human Siglec-5 expressed on human …; experiment: flow cytometry, human primary macrophages, 10 ug/ml mAb
Method: as §1, §2

[7] = molecular target: T3, Human Siglec 5, Fc chimera (R&D Systems); experiment: RBC adhesion to plate-bound Siglec-5-Fc, 1.0 ug/ml mAb, percent of binding without antibody
Method: as §3

| Binder | % Positive [1] [%] | MFI [1] | % Positive [2] [%] | MFI [2] | Kd [3] [nM] | % Positive [4] [%] | MFI [4] | Percent RBC Binding to Siglec-5 [5] [%] | % Positive [6] [%] | MFI [6] | Percent RBC Binding to Siglec-5 [7] [%] |
| --- | --- | --- | --- | --- | --- | --- | --- | --- | --- | --- | --- |
| anti-Siglec-5 monoclonal antibody 9B1 (antibody, IgG1, V domains shown) VH: QVQLQQSGAELVKPGASVKLSCKASGYTFTEYTIHWVKQRSGQGLEWIGWFYPGSGSIKYNEKFKDKATLTADKSSSTVYMELSRLTSEDSAVYFCARQEEGGIGFDYWGQGTTLTVSS VL: DVLMTQTPLSLLVSLGDQASISCRSSQSIVHSNGNTYLEWYLQKPGQSPKLLIYKVSIRFSGVPDRFSGSGSGTDFTLKISRVEAEDLGVYYCFQGSHVPWTFGGGTKLEIK | 96.1 | 660 | 99.2 | 411 | 0.069 | 97.6 | 382 | 29.2 | 94 | 560 | 5.79 |
| anti-Siglec-5 monoclonal antibody 7A5 (antibody, IgG1, V domains shown) VH: EIQLQQSGPELVKPGASVKVSCKASGYSFTDYNMYWVKQSHGKSLEWIGYIDPYNGGTTYNQKFKGKATLTVDKSSSTAFMHLNSLTSEDSAVFYCAFYYGYYGVPYWGQGTLVTVSA VL: DIVMIQSQKFMSTSVGDRVSVTCKASQNVDTNVAWYQQKPGQSPKALIYSASYRYSGVPDRFTGSGSGTDFTLTISNVQSEDLAEYFCQQYNSFPLTFGSGTKLEIK | 90.3 | 467 | 94.6 | 261 | 0.112 | 93.5 | 391 | 47.4 | 84.1 | 445 | 6.86 |
| anti-Siglec-5 monoclonal antibody 10B6 (antibody, IgG1, V domains shown) VH: EIQLQQSGPELVKPGASVKVSCKASGYSFTDYNMYWVKQSHGKSLECFGYIDPYNGGPYYNQKFKGKATLTVDKSSSTAFMHLNSLTSEDSAVYYCAFYYGYYGVPYWGQGTLVTVSA VL: DIVMTQSQKFMSTSVGDRVSVTCKASHNVGTSVAWYQQKPGQSPKSLIYSASYRYSGVPDRFTGSGSGTDFTLTISNVQSEDLAEYFCQQYNSYPLTFGSGTKLEIK | 93.6 | 607 | 94.4 | 253 | 0.101 | 98.2 | 421 | 27.5 | 94.4 | 581 | 5.21 |
| anti-Siglec-5 monoclonal antibody 5H2 (antibody, IgG1, V domains shown) VH: EVQLQQSGPELVKPGASVKVSCKASGYSFTDYNMYWVKQSHGKSLEWIGYIDPYNGGTSYNQKFKGKATLTVDKSSSTAFMLLNSLTSEDSAVYYCALYYDYDGIPYWGQGTLVTVSA VL: DIVMTQSQKFMSTSVGDRVSVTCKASQNVGTNVAWYRQKPGQSPKALIYSASYRYNGVPDRFTGSGSGTDFTLTISNVQSEDLAEYFCQQYNSYPYTFGGGTKLEIK | 94 | 515 | 98.1 | 329 | 0.184 | 96.1 | 404 | 36.5 | 93.5 | 537 | 9.94 |
| anti-Siglec-5 monoclonal antibody 10F9 (antibody, IgG1, V domains shown) VH: EIQLQQSGPELVKPGASVKVSCKASGYSFTGYNMYWVKQSHGKSFEWIGYIDPYTGGTSYNQRFKGKATLTVDKSSSTAFMHLNSLTSEDSAIYYCALFYDYDGFPYWGQGTLVTVSA VL: DIVMTQSQKFMSTSVGDRVSVTCKASQNVDTNVAWYQQKPGQSPKALIYSASYRYSGVPDRFTGSGSGTDFTLTISNVQSEDLAEYFCQQYNSYPYTFGGGTKLEIK | 95.6 | 589 | 98.9 | 371 | 0.104 | 95.3 | 405 | 48.7 | 96.2 | 562 | 6.22 |
| anti-Siglec-5 monoclonal antibody 11C6 (antibody, IgG1, V domains shown, also called 1106) VH: QVQLQQSGAELVKPGASVKLSCKASGYTFTEYTIHWVKQRSGQGLEWIGWFYPGSGSIKYNEKFKDKATLTAVKSSSTVYMEFSRLTSEDSAVYFCARQDYDGLGFAYWGQGTLVTVSA VL: DVLMTQTPLSLPVSLGDQASISCRSSQTIVHSNGNTYLEWYLQKPGQSPKLLIYKVSNRFSGVPDRFSGSGSGTDFTLKISRVEAEDLGVYYCFQGSHVPWTFGGGTKLEIK | 86.9 | 402 | 99.7 | 500 | 0.166 | 95.7 | 386 | 25.4 | 80.6 | 451 | 4.76 |
| anti-Siglec-5 monoclonal antibody 8A1 (antibody, IgG1, V domains shown) VH: EIQLQQSGPELVKPGASVKVSCKASDYAFTSYNIYWVKQSHGKSLEWIGYIDPYNGGTSYNQTFKGKATLTVDKSSSTAYMHLNSLTSEDSAVYYCAMKVGYEAMDYWGQGTSVTVSS VL: DIVMTQSQKFMSTSVGDRVSVTCKASQNVGTYVAWYQQKPGQSPKALIYSASYRYSGVPDRFTGSGSGTDFTLNISNVQSEDLAEYFCQQFNSYPYTFGGGTKLEIK | 85.7 | 349 | 89 | 219 | 0.229 | 98 | 398 | 19 | 83 | 457 | 8 |
| anti-Siglec-5 monoclonal antibody 11H3 (antibody, IgG1, V domains shown) VH: QVQLQQSGPELVKPGASVKVSCKASDYAFTSYNIYWVKQSHGKSLEWIGYIDPYNGGTSYNQTFKGKATLTVDKSSSTAYMHLNSLTSEDSAVYYCAMKVGYEAMDYWGQGTSVTVSS VL: DIQMTQSQKFMSTSVGDRVSVTCKASQNVGTNVAWYQQKPGQSPKALIYSASYRYSGVPDRFTGSGSGTDFTLNISNVQSEDLAEYFCQQFNSYPYTFGGGTKLEIK | 86 | 377 | 97.8 | 367 | 0.569 | 95.5 | 376 | 38.5 | 84.1 | 444 | 6.17 |
| anti-Siglec-5 monoclonal antibody 2G5 (antibody, IgG1, V domains shown) VH: EIQLQQSGPELVKPGASVKVSCKASGYSFTDYNMYWVKQSHGKSLEWIGYIDPYNGNTTYNQRFKGKATLTVDKSSSTAFMHLNSLTSEDAAVYYCATFYGFDGFAYWGQGSLVAVSA VL: QAVVTQESALTTSPGETVTLTCRSSTGAVTTSNYANWVQEKPDHLFTGLIGTTNNRAPGVPARFSGSLIGDKAALTITGAQTEDEAIYFCALWYSNHLVFGGGTKLTVLG | 90.7 | 459 | 87.4 | 207 | 0.081 | 97.3 | 368 | 31.8 | 91.8 | 569 | 6.73 |
| anti-Siglec-5 monoclonal antibody 8C3 (antibody, IgG1, V domains shown) VH: QVQLQQSGGGLVKPGTSVKLSCKASGYIFTEYIIHWVKQRSGQGLEWIGWFYPGIISIKYNEKFKDKATLTADKSSSTVYMELSRLTSEDSAVYFCAGHEGYDGAMDYWGQGTSVTVSS VL: DVLMTQTPLSLPVSLGDQASISCRCSQSIVHSNGNTYLEWYLQKPGQSPKLLIYRVSNRFSGVPDRFSGSGSGTDFTLKISRVEAEDLGVYYCFQGSHVPWTFGGGTKLEIK | 94.9 | 512 | 96 | 320 | 0.043 | 94.8 | 377 | 24.2 | 92 | 490 | 5.36 |

From US20210017275A1 (Alector, published 2021)
